Data taken from patent US20200317768A1 (published 2020).

Molecular target: T1, cynomolgus monkey FcγRIIIaS extracellular domain, C-terminal His-tag (cynomolgus monkey, UniProt A3RFZ7 21-206 (rhesus entry))
T1 construct: also called cyno FcγRIIIaS; cynoFcγRIIIaS; not shown: His-tag added to C-terminus
Test: SPR (Biacore), KD of SG1 / KD of variant;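 further: relative to parent M103205H795-SG1 carrying the SG1 human heavy chain constant region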

T1 sequence (A3RFZ7 21-206): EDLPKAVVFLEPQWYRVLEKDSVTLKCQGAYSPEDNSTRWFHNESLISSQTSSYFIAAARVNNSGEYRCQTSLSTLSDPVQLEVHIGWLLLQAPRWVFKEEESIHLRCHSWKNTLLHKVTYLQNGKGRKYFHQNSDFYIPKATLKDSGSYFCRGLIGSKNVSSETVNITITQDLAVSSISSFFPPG

Row | Binder | KD fold (SG1 = 1)
1 | M103205H795-MY242/M103202L889-SK1 (antibody, human IgG1, kappa) heavy: QVTLKESGPVLVKPTETLTLTCTVSGIDLSHDDISWVRQAPGKGLEWVGIISYAGSTYYASWAKGRLTISKDTSKNQVVLTMTNMDPVDTATYYCARGVPAYSHGGDLWGQGTLVTVSSASTKGPSVFPLAPSSKSTSGGTAALGCLVKDYFPEPVTVSWNSGALTSGVHTFPAVLQSSGLYSLSSVVTVPSSSLGTQTYICNVNHKPSNTKVDKKVEPKSCDKTHTCPPCPAPELLGGISVFLFPPKPKDTLMISRTPEVTCVVVDVSDEDPEVKFNWYVDGVEVHNAKTKPREEQYNSTYRVVSVLTVLHQDWLNGKEYKCKVSNKALPKPIEKTISKAKGQPREPQVYTLPPSREEMTKNQVSLTCLVKGFYPSDIAVEWESNGQPENNYKTTPKVLDSDGSFFLYSKLTVDKSRWQQGNVFSCSVMHEALHNHYTQKSLSLSP light: DIVMTQSPATLSLSPGERATLSCTSSQSVYHANWLSWFQQKPGQPPKLLIYWASTLAYGVPSRFSGSGSGTDFTLTISSLQPEDAATYYCAGGYGGGRYAFGQGTKVEIKRTVAAPSVFIFPPSDEQLKSGTASVVCLLNNFYPREAKVQWKVDNALQSGNSQESVTEQDSKDSTYSLSSTLTLSKADYEKHKVYACEVTHQGLSSPVTKSFNRGEC | 0.68 fold
2 | M103205H795-MY269/M103202L889-SK1 (antibody, human IgG1, kappa) heavy: QVTLKESGPVLVKPTETLTLTCTVSGIDLSHDDISWVRQAPGKGLEWVGIISYAGSTYYASWAKGRLTISKDTSKNQVVLTMTNMDPVDTATYYCARGVPAYSHGGDLWGQGTLVTVSSASTKGPSVFPLAPSSKSTSGGTAALGCLVKDYFPEPVTVSWNSGALTSGVHTFPAVLQSSGLYSLSSVVTVPSSSLGTQTYICNVNHKPSNTKVDKKVEPKSCDKTHTCPPCPAPELLMGPSVFLFPPKPKDTLMISRTPEVTCVVVDVSDEDPEVKFNWYVDGVEVHNAKTKPREEQYNSTYRVVSVLTVLHQDWLNGKEYKCKVSNKALPKPIEKTISKAKGQPREPQVYTLPPSREEMTKNQVSLTCLVKGFYPSDIAVEWESNGQPENNYKTTPKVLDSDGSFFLYSKLTVDKSRWQQGNVFSCSVMHEALHNHYTQKSLSLSP light: DIVMTQSPATLSLSPGERATLSCTSSQSVYHANWLSWFQQKPGQPPKLLIYWASTLAYGVPSRFSGSGSGTDFTLTISSLQPEDAATYYCAGGYGGGRYAFGQGTKVEIKRTVAAPSVFIFPPSDEQLKSGTASVVCLLNNFYPREAKVQWKVDNALQSGNSQESVTEQDSKDSTYSLSSTLTLSKADYEKHKVYACEVTHQGLSSPVTKSFNRGEC | 1.64 fold
3 | M103205H795-MY270/M103202L889-SK1 (antibody, human IgG1, kappa) heavy: QVTLKESGPVLVKPTETLTLTCTVSGIDLSHDDISWVRQAPGKGLEWVGIISYAGSTYYASWAKGRLTISKDTSKNQVVLTMTNMDPVDTATYYCARGVPAYSHGGDLWGQGTLVTVSSASTKGPSVFPLAPSSKSTSGGTAALGCLVKDYFPEPVTVSWNSGALTSGVHTFPAVLQSSGLYSLSSVVTVPSSSLGTQTYICNVNHKPSNTKVDKKVEPKSCDKTHTCPPCPAPELLHGPSVFLFPPKPKDTLMISRTPEVTCVVVDVSDEDPEVKFNWYVDGVEVHNAKTKPREEQYNSTYRVVSVLTVLHQDWLNGKEYKCKVSNKALPKPIEKTISKAKGQPREPQVYTLPPSREEMTKNQVSLTCLVKGFYPSDIAVEWESNGQPENNYKTTPKVLDSDGSFFLYSKLTVDKSRWQQGNVFSCSVMHEALHNHYTQKSLSLSP light: DIVMTQSPATLSLSPGERATLSCTSSQSVYHANWLSWFQQKPGQPPKLLIYWASTLAYGVPSRFSGSGSGTDFTLTISSLQPEDAATYYCAGGYGGGRYAFGQGTKVEIKRTVAAPSVFIFPPSDEQLKSGTASVVCLLNNFYPREAKVQWKVDNALQSGNSQESVTEQDSKDSTYSLSSTLTLSKADYEKHKVYACEVTHQGLSSPVTKSFNRGEC | 0.33 fold
4 | M103205H795-MY271/M103202L889-SK1 (antibody, human IgG1, kappa) heavy: QVTLKESGPVLVKPTETLTLTCTVSGIDLSHDDISWVRQAPGKGLEWVGIISYAGSTYYASWAKGRLTISKDTSKNQVVLTMTNMDPVDTATYYCARGVPAYSHGGDLWGQGTLVTVSSASTKGPSVFPLAPSSKSTSGGTAALGCLVKDYFPEPVTVSWNSGALTSGVHTFPAVLQSSGLYSLSSVVTVPSSSLGTQTYICNVNHKPSNTKVDKKVEPKSCDKTHTCPPCPAPELLVGPSVFLFPPKPKDTLMISRTPEVTCVVVDVSDEDPEVKFNWYVDGVEVHNAKTKPREEQYNSTYRVVSVLTVLHQDWLNGKEYKCKVSNKALPKPIEKTISKAKGQPREPQVYTLPPSREEMTKNQVSLTCLVKGFYPSDIAVEWESNGQPENNYKTTPKVLDSDGSFFLYSKLTVDKSRWQQGNVFSCSVMHEALHNHYTQKSLSLSP light: DIVMTQSPATLSLSPGERATLSCTSSQSVYHANWLSWFQQKPGQPPKLLIYWASTLAYGVPSRFSGSGSGTDFTLTISSLQPEDAATYYCAGGYGGGRYAFGQGTKVEIKRTVAAPSVFIFPPSDEQLKSGTASVVCLLNNFYPREAKVQWKVDNALQSGNSQESVTEQDSKDSTYSLSSTLTLSKADYEKHKVYACEVTHQGLSSPVTKSFNRGEC | 0.41 fold
5 | M103205H795-MY272/M103202L889-SK1 (antibody, human IgG1, kappa) heavy: QVTLKESGPVLVKPTETLTLTCTVSGIDLSHDDISWVRQAPGKGLEWVGIISYAGSTYYASWAKGRLTISKDTSKNQVVLTMTNMDPVDTATYYCARGVPAYSHGGDLWGQGTLVTVSSASTKGPSVFPLAPSSKSTSGGTAALGCLVKDYFPEPVTVSWNSGALTSGVHTFPAVLQSSGLYSLSSVVTVPSSSLGTQTYICNVNHKPSNTKVDKKVEPKSCDKTHTCPPCPAPELLQGPSVFLFPPKPKDTLMISRTPEVTCVVVDVSDEDPEVKFNWYVDGVEVHNAKTKPREEQYNSTYRVVSVLTVLHQDWLNGKEYKCKVSNKALPKPIEKTISKAKGQPREPQVYTLPPSREEMTKNQVSLTCLVKGFYPSDIAVEWESNGQPENNYKTTPKVLDSDGSFFLYSKLTVDKSRWQQGNVFSCSVMHEALHNHYTQKSLSLSP light: DIVMTQSPATLSLSPGERATLSCTSSQSVYHANWLSWFQQKPGQPPKLLIYWASTLAYGVPSRFSGSGSGTDFTLTISSLQPEDAATYYCAGGYGGGRYAFGQGTKVEIKRTVAAPSVFIFPPSDEQLKSGTASVVCLLNNFYPREAKVQWKVDNALQSGNSQESVTEQDSKDSTYSLSSTLTLSKADYEKHKVYACEVTHQGLSSPVTKSFNRGEC | 1.24 fold
6 | M103205H795-MY273/M103202L889-SK1 (antibody, human IgG1, kappa) heavy: QVTLKESGPVLVKPTETLTLTCTVSGIDLSHDDISWVRQAPGKGLEWVGIISYAGSTYYASWAKGRLTISKDTSKNQVVLTMTNMDPVDTATYYCARGVPAYSHGGDLWGQGTLVTVSSASTKGPSVFPLAPSSKSTSGGTAALGCLVKDYFPEPVTVSWNSGALTSGVHTFPAVLQSSGLYSLSSVVTVPSSSLGTQTYICNVNHKPSNTKVDKKVEPKSCDKTHTCPPCPAPELLLGPSVFLFPPKPKDTLMISRTPEVTCVVVDVSDEDPEVKFNWYVDGVEVHNAKTKPREEQYNSTYRVVSVLTVLHQDWLNGKEYKCKVSNKALPKPIEKTISKAKGQPREPQVYTLPPSREEMTKNQVSLTCLVKGFYPSDIAVEWESNGQPENNYKTTPKVLDSDGSFFLYSKLTVDKSRWQQGNVFSCSVMHEALHNHYTQKSLSLSP light: DIVMTQSPATLSLSPGERATLSCTSSQSVYHANWLSWFQQKPGQPPKLLIYWASTLAYGVPSRFSGSGSGTDFTLTISSLQPEDAATYYCAGGYGGGRYAFGQGTKVEIKRTVAAPSVFIFPPSDEQLKSGTASVVCLLNNFYPREAKVQWKVDNALQSGNSQESVTEQDSKDSTYSLSSTLTLSKADYEKHKVYACEVTHQGLSSPVTKSFNRGEC | 0.21 fold
7 | M103205H795-MY274/M103202L889-SK1 (antibody, human IgG1, kappa) heavy: QVTLKESGPVLVKPTETLTLTCTVSGIDLSHDDISWVRQAPGKGLEWVGIISYAGSTYYASWAKGRLTISKDTSKNQVVLTMTNMDPVDTATYYCARGVPAYSHGGDLWGQGTLVTVSSASTKGPSVFPLAPSSKSTSGGTAALGCLVKDYFPEPVTVSWNSGALTSGVHTFPAVLQSSGLYSLSSVVTVPSSSLGTQTYICNVNHKPSNTKVDKKVEPKSCDKTHTCPPCPAPELLTGPSVFLFPPKPKDTLMISRTPEVTCVVVDVSDEDPEVKFNWYVDGVEVHNAKTKPREEQYNSTYRVVSVLTVLHQDWLNGKEYKCKVSNKALPKPIEKTISKAKGQPREPQVYTLPPSREEMTKNQVSLTCLVKGFYPSDIAVEWESNGQPENNYKTTPKVLDSDGSFFLYSKLTVDKSRWQQGNVFSCSVMHEALHNHYTQKSLSLSP light: DIVMTQSPATLSLSPGERATLSCTSSQSVYHANWLSWFQQKPGQPPKLLIYWASTLAYGVPSRFSGSGSGTDFTLTISSLQPEDAATYYCAGGYGGGRYAFGQGTKVEIKRTVAAPSVFIFPPSDEQLKSGTASVVCLLNNFYPREAKVQWKVDNALQSGNSQESVTEQDSKDSTYSLSSTLTLSKADYEKHKVYACEVTHQGLSSPVTKSFNRGEC | 0.58 fold
8 | M103205H795-MY276/M103202L889-SK1 (antibody, human IgG1, kappa) heavy: QVTLKESGPVLVKPTETLTLTCTVSGIDLSHDDISWVRQAPGKGLEWVGIISYAGSTYYASWAKGRLTISKDTSKNQVVLTMTNMDPVDTATYYCARGVPAYSHGGDLWGQGTLVTVSSASTKGPSVFPLAPSSKSTSGGTAALGCLVKDYFPEPVTVSWNSGALTSGVHTFPAVLQSSGLYSLSSVVTVPSSSLGTQTYICNVNHKPSNTKVDKKVEPKSCDKTHTCPPCPAPELLIGPSVFLFPPKPKDTLMISRTPEVTCVVVDVSDEDPEVKFNWYVDGVEVHNAKTKPREEQYNSTYRVVSVLTVLHQDWLNGKEYKCKVSNKALPKPIEKTISKAKGQPREPQVYTLPPSREEMTKNQVSLTCLVKGFYPSDIAVEWESNGQPENNYKTTPKVLDSDGSFFLYSKLTVDKSRWQQGNVFSCSVMHEALHNHYTQKSLSLSP light: DIVMTQSPATLSLSPGERATLSCTSSQSVYHANWLSWFQQKPGQPPKLLIYWASTLAYGVPSRFSGSGSGTDFTLTISSLQPEDAATYYCAGGYGGGRYAFGQGTKVEIKRTVAAPSVFIFPPSDEQLKSGTASVVCLLNNFYPREAKVQWKVDNALQSGNSQESVTEQDSKDSTYSLSSTLTLSKADYEKHKVYACEVTHQGLSSPVTKSFNRGEC | 0.3 fold
9 | M103205H795-MY278/M103202L889-SK1 (antibody, human IgG1, kappa) heavy: QVTLKESGPVLVKPTETLTLTCTVSGIDLSHDDISWVRQAPGKGLEWVGIISYAGSTYYASWAKGRLTISKDTSKNQVVLTMTNMDPVDTATYYCARGVPAYSHGGDLWGQGTLVTVSSASTKGPSVFPLAPSSKSTSGGTAALGCLVKDYFPEPVTVSWNSGALTSGVHTFPAVLQSSGLYSLSSVVTVPSSSLGTQTYICNVNHKPSNTKVDKKVEPKSCDKTHTCPPCPAPELLMGPSVFLFPPKPKDTLMISRTPEVTCVVVDVSDEDPEVKFNWYVDGVEVHNAKTKPREELYNSTYRVVSVLTVLHQDWLNGKEYKCKVSNKALPKPIEKTISKAKGQPREPQVYTLPPSREEMTKNQVSLTCLVKGFYPSDIAVEWESNGQPENNYKTTPPVLDSDGSFFLYSKLTVDKSRWQQGNVFSCSVMHEALHNHYTQKSLSLSP light: DIVMTQSPATLSLSPGERATLSCTSSQSVYHANWLSWFQQKPGQPPKLLIYWASTLAYGVPSRFSGSGSGTDFTLTISSLQPEDAATYYCAGGYGGGRYAFGQGTKVEIKRTVAAPSVFIFPPSDEQLKSGTASVVCLLNNFYPREAKVQWKVDNALQSGNSQESVTEQDSKDSTYSLSSTLTLSKADYEKHKVYACEVTHQGLSSPVTKSFNRGEC | 0.49 fold
